Laboratory results: patent US20120107244A1 (UNIVERSIT T ULM, published 2012)

Target: the molecule itself
Assay: gel filtration (Superdex 200); elution volume against monomer, dimer and tetramer standards

B1: monomeric eqFP611 variant as set forth in SEQ ID No. 1 (mRuby) (other)
chain: MNSLIKENMRMKVVLEGSVNGHQFKCTGEGEGNPYMGTQTMRIKVIEGGPLPFAFDILATSFMYGSRTFIKYPKGIPDFFKQSFPEGFTWERVTRYEDGGVITVMQDTSLEDGCLVYHAQVRGVNFPSNGAVMQKKTKGWEPNTEMMYPADGGLRGYTHMALKVDGGGHLSCSFVTTYRSKKTVGNIKMPGIHAVDHRLERLEESDNEMFVVQREHAVAKFAGLGGG
notes: not shown: N-terminal poly-His tag from the pQE-32 vector
B1: no binding (tested: 4-30 mg/ml (0.16-1.2 mM)).
